# B1: ZNF649 (parent)
# chain: EHERAHRGEKPHGCSLCGKAFYKR
# B2: KCNA3 (parent)
# chain: GERVVINISGLRFETQLKTLCQFP
# Variants of: B1
# Test: protein stability index of a GFP-peptide fusion (GPS, HEK-293T) (PSI 1-6); higher = more stable
# Conditions: c terminus: a fixed tail appended
# 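Further: lentivirally expressed fusions sorted by FACS into six bins by GFP to DsRed ratio, PSI derived from sequencing read proportions per bin multiplied by bin number.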
row,Variant,protein stability index
1,EHERAHRGEKPHGCSLCGKAFYRR,3.06
2,EHERAHRGEKPHGCSLCGKAFYIR,1.92
3,EHERAHRGEKPHGCSLCGKAFYMR,3
4,EHERAHRGEKPHGCSLCGKAFYTR,2.8
5,EHERAHRGEKPHGCSLCGKAFYVR,1.95
6,EHERAHRGEKPHGCSLCGKAFYCR,2.64
7,EHERAHRGEKPHGCSLCGKAFYSR,2.03
8,EHERAHRGEKPHGCSLCGKAFYHR,1.83
9,EHERAHRGEKPHGCSLCGKAFYGR,2.65
10,EHERAHRGEKPHGCSLCGKAFYQR,2.24
11,EHERAHRGEKPHGCSLCGKAFYDR,1.9
12,EHERAHRGEKPHGCSLCGKAFYLR,1.77
13,EHERAHRGEKPHGCSLCGKAFKKR,3.13
14,EHERAHRGEKPHGCSLCGKAFAKR,2.22
15,EHERAHRGEKPHGCSLCGKAFIKR,1.93
16,EHERAHRGEKPHGCSLCGKAFMKR,2.69
17,EHERAHRGEKPHGCSLCGKAFWKR,1.81
18,EHERAHRGEKPHGCSLCGKAFLKR,2.68
19,EHERAHRGEKPHGCSLCGKAFNKR,2.35
20,EHERAHRGEKPHGCSLCGKAFTKR,1.93
21,EHERAHRGEKPHGCSLCGKAFFKR,2.95
22,EHERAHRGEKPHGCSLCGKAFPKR,1.52

row,Variant,protein stability index
1,EHERAHRGEKPHGCSLCGKAFQKR,2.36
2,EHERAHRGEKPHGCSLCGKAFDKR,2.48
3,EHERAHRGEKPHGCSLCGKAFVKR,1.36
4,EHERAHRGEKPHGCSLCKKAFYKR,2.03
5,EHERAHRGEKPHGCSLCVKAFYKR,2
6,EHERAHRGEKPHGCSLCWKAFYKR,1.54
7,EHERAHRGEKPHGCSLCNKAFYKR,2.49
8,EHERAHRGEKPHGCSLCMKAFYKR,1.72
9,EHERAHRGEKPHGCSLCRKAFYKR,3.06
10,EHERAHRGEKPHGCSLCIKAFYKR,1.67
11,EHERAHRGEKPHGCSLCLKAFYKR,2.42
12,EHERAHRGEKPHGCSLCTKAFYKR,2.34
13,EHERAHRGEKPHGCSLCYKAFYKR,1.85
14,EHERAHRGEKPHGCSLCSKAFYKR,2.5
15,EHERAHRGEKPHGCSLCQKAFYKR,1.89
16,EHERAHRGEKPHGCSLCGTAFYKR,1.97
17,EHERAHRGEKPHGCSLCGVAFYKR,1.44
18,EHERAHRGEKPHGCSLCGEAFYKR,1.73
19,EHERAHRGEKPHGCSLCGIAFYKR,1.61
20,EHERAHRGEKPHGCSLCGCAFYKR,1.78
21,EHERAHRGEKPHGCSLCGHAFYKR,2.44
22,EHERAHRGEKPHGCSLCGYAFYKR,2.19

row,Variant,protein stability index
1,EHERAHRGEKPHGCSLCGGAFYKR,1.41
2,EHERAHRGEKPHGCSLCGMAFYKR,2.01
3,EHERAHRGEKPHGCSLCGPAFYKR,1.42
4,EHERAHRGEKPHGCSLCGAAFYKR,1.61
5,EHERAHRGEKPHGCSLCGNAFYKR,2.43
6,EHERAHRGEKPHGCSLCGDAFYKR,2.13
7,EHERAHRGEKPHGCSLCGKAFYKI,2.81
8,EHERAHRGEKPHGCSLCGKAFYKW,3.25
9,EHERAHRGEKPHGCSLCGKAFYKG,3.11
10,EHERAHRGEKPHGCSLCGKAFYKV,2.05
11,EHERAHRGEKPHGCSLCGKAFYKT,4.1
12,EHERAHRGEKPHGCSLCGKAFYKA,3.46
13,EHERAHRGEKPHGCSLCGKAFYKD,3.35
14,EHERAHRGEKPHGCSLCGKAFYKP,3
15,EHERAHRGEKPHGCSLCGKAFYKC,4.03
16,EHERAHRGEKPHGCSLCGKAFYKF,2.65
17,EHERAHRGEKPHGCSLCGKAFYKY,3.5
18,EHERAHRGEKPHGCSLCGKAFYKQ,4.13
19,EHERAHRGEKPHGCSLCGKAFYKS,4.19
20,EHERAHRGEKPHGCSLCGKCFYKR,2
21,EHERAHRGEKPHGCSLCGKTFYKR,2.17
22,EHERAHRGEKPHGCSLCGKFFYKR,2.57

row,Variant,protein stability index
1,EHERAHRGEKPHGCSLCGKKFYKR,2.74
2,EHERAHRGEKPHGCSLCGKIFYKR,1.95
3,EHERAHRGEKPHGCSLCGKDFYKR,2.51
4,EHERAHRGEKPHGCSLCGKHFYKR,3.2
5,EHERAHRGEKPHGCSLCGKYFYKR,1.75
6,EHERAHRGEKPHGCSLCGKVFYKR,1.79
7,EHERAHRGEKPHGCSLCGKMFYKR,2.62
8,EHERAHRGEKPHGCSLCGKNFYKR,1.83
9,EHERAHRGEKPHGCSLCGKRFYKR,2.78
10,EHERAHRGEKPHGCSLCGKAPYKR,2.74
11,EHERAHRGEKPHGCSLCGKADYKR,2.34
12,EHERAHRGEKPHGCSLCGKAGYKR,2.11
13,EHERAHRGEKPHGCSLCGKAMYKR,2.37
14,EHERAHRGEKPHGCSLCGKASYKR,2.13
15,EHERAHRGEKPHGCSLCGKALYKR,3.61
16,EHERAHRGEKPHGCSLCGKAYYKR,2.95
17,EHERAHRGEKPHGCSLCGKACYKR,2.13
18,EHERAHRGEKPHGCSLCGKAHYKR,3.38
19,EHERAHRGEKPHGCSLCGKAVYKR,2.01
20,EHERAHRGEKPHGCSLCGKATYKR,2.14

# Variants of: B2
# Test: as above
# Conditions: c terminus: a fixed tail appended
row,Variant,protein stability index
1,GERVVINISGLRKETQLKTLCQFP,1.67
2,GERVVINISGLRMETQLKTLCQFP,2.64
3,GERVVINISGLRAETQLKTLCQFP,1.45
4,GERVVINISGLRCETQLKTLCQFP,2.83
5,GERVVINISGLRSETQLKTLCQFP,1.97
6,GERVVINISGLRNETQLKTLCQFP,1.26
7,GERVVINISGLRTETQLKTLCQFP,1.56
8,GERVVINIGGLRFETQLKTLCQFP,1.04
9,GERVVINIDGLRFETQLKTLCQFP,1.51
10,GERVVINIVGLRFETQLKTLCQFP,1.83
11,GERVVINIPGLRFETQLKTLCQFP,1
12,GERVVINIEGLRFETQLKTLCQFP,3.59
13,GERVVINISGLRFETQLKFLCQFP,1.76
14,GERVVINISGLRFETQLKPLCQFP,1.49
15,GERVVINISGLRFETQLKQLCQFP,1.28
16,GERVVINISGLRFETQLKNLCQFP,1.34
17,GERVVINISGLRFETQLKCLCQFP,3.24
18,GERFVINISGLRFETQLKTLCQFP,3.43
19,GERCVINISGLRFETQLKTLCQFP,3.21
20,GERDVINISGLRFETQLKTLCQFP,1.88
21,GERKVINISGLRFETQLKTLCQFP,2.23
22,GERRVINISGLRFETQLKTLCQFP,2.28
23,MERVVINISGLRFETQLKTLCQFP,3.17
24,QERVVINISGLRFETQLKTLCQFP,1.95
25,LERVVINISGLRFETQLKTLCQFP,2.66
26,WERVVINISGLRFETQLKTLCQFP,4.64

row,Variant,protein stability index
1,KERVVINISGLRFETQLKTLCQFP,2.52
2,GERVVINISGLRFETFLKTLCQFP,2.47
3,GERVVINISGLRFETPLKTLCQFP,2
4,GERVVINISGLRFETYLKTLCQFP,2.02
5,GERVVINISGLRFETSLKTLCQFP,2.69
6,GERVVINISGLRFETDLKTLCQFP,1.87
7,GERVVINISGLRFETQLKTLCQFA,2.47
8,GERVVINISGLRFETQLKTLCQFG,2.75
9,GERVVINISGLRFETQLKTLCQFV,1.04
10,GERVVINISGLRFETQLKTLCQFY,2.26
11,GERVVINISGLRFETQLKTLCQFK,1.44
12,GERVVINISGLRFETQLKTLCQFI,2
13,GERVVINISGLRFETQLKTLCQCP,3.65
14,GERVVINISGLRFETQLKTLCQHP,3.14
15,GERVVINISGLRFETQLKTLCQSP,2.88
16,GERVVINISGLRFETQLKTLCQAP,2.41
17,GERVVINISGPRFETQLKTLCQFP,1.54
18,GERVVINISGSRFETQLKTLCQFP,1.75
19,GERVVINISGGRFETQLKTLCQFP,2.45
20,GEAVVINISGLRFETQLKTLCQFP,3.5
21,GESVVINISGLRFETQLKTLCQFP,2.16
22,GETVVINISGLRFETQLKTLCQFP,3.87
23,GEGVVINISGLRFETQLKTLCQFP,1.85
24,GECVVINISGLRFETQLKTLCQFP,2.36
25,GEQVVINISGLRFETQLKTLCQFP,3.4
26,GLRVVINISGLRFETQLKTLCQFP,3.35

row,Variant,protein stability index
1,GGRVVINISGLRFETQLKTLCQFP,2.35
2,GFRVVINISGLRFETQLKTLCQFP,1.98
3,GHRVVINISGLRFETQLKTLCQFP,1.45
4,GERVVINISGLRFETQLKTLIQFP,3.26
5,GERVVINISGLRFETQLKTLVQFP,1.81
6,GERVVINISGLRFETQLKTLQQFP,2.57
7,GERVVINISGLRFETQLKTLPQFP,3.67
8,GERVVINISGLRFETQLKTLHQFP,1.91
9,GERVVINISGLRFETQLKTLDQFP,2.14
10,GERVVINISGLRFETQLKTLGQFP,1
11,GERVVINISGLRFETQLKTCCQFP,1.39
12,GERVVINISGLRFETQLKTSCQFP,2.34
13,GERVVIHISGLRFETQLKTLCQFP,4.19
14,GERVVISISGLRFETQLKTLCQFP,4.73
15,GERVVHNISGLRFETQLKTLCQFP,1.78
16,GERVVCNISGLRFETQLKTLCQFP,1.38
17,GERVVDNISGLRFETQLKTLCQFP,2.46
18,GERVVENISGLRFETQLKTLCQFP,2.52
19,GERVVINESGLRFETQLKTLCQFP,3.02
20,GERVVINTSGLRFETQLKTLCQFP,2.17
21,GERVVINHSGLRFETQLKTLCQFP,2.55
22,GERVVINISDLRFETQLKTLCQFP,1.47
23,GERVVINISVLRFETQLKTLCQFP,1
24,GERVVINISLLRFETQLKTLCQFP,3.08
25,GERVVINISNLRFETQLKTLCQFP,2.35
26,GERVVINISGLRFETQLKTLCNFP,2.1

row,Variant,protein stability index
1,GERVVINISGLRFETQLKTLCTFP,2.59
2,GERVVINISGLRFETQLKTLCGFP,2.94
3,GERVVINISGLRFETQLKTLCMFP,3.99
4,GERVVINISGLRFETQLKTLCHFP,2.26
5,GERVVINISGLRFPTQLKTLCQFP,1
6,GERVVINISGLRFMTQLKTLCQFP,3.03
7,GERVVINISGLRFRTQLKTLCQFP,1.89
8,GERVVINISGLRFGTQLKTLCQFP,2.74
9,GERVVINISGLRFQTQLKTLCQFP,1.04
10,GERVVINISGLRFHTQLKTLCQFP,3.28
11,GERVVINISGLRFVTQLKTLCQFP,3
12,GERVVINISGLRFELQLKTLCQFP,3.24
13,GERVVINISGLRFEEQLKTLCQFP,2.62
14,GERVVINISGLRFEQQLKTLCQFP,2.31
15,GERVVINISGLRFEYQLKTLCQFP,2.63
16,GERVVINISGLRFETQLITLCQFP,3.07
17,GERVVINISGLRFETQLQTLCQFP,1.87
18,GERVVINISGLRFETQLRTLCQFP,2.29
19,GERVCINISGLRFETQLKTLCQFP,2.49
20,GERVGINISGLRFETQLKTLCQFP,2.04
21,GERVQINISGLRFETQLKTLCQFP,1.94
22,GERVVINISGLCFETQLKTLCQFP,2.46
23,GERVVINISGLDFETQLKTLCQFP,1.84
24,GERVVINISGLNFETQLKTLCQFP,2.85

# From the supplement of paper PMC10567573
